In article PMC3248895:

Molecular target: polymerized nonmuscle actin (F-actin) (UniProt P60709)
Experiment: co-sedimentation

Kd: 10.7 µM
Substance: GST-connecdenn 3 789–801 wild type (from UniProt Q8IV53 789-801) (peptide)
